Laboratory results from US20260232732A1 (FUNDACI INSTITUT DE RECERCA CONTRA LA LEUC MIA JOSEP …, published 2026).
Where no end group is shown, it is not given here. The star is where a group is joined. Biotin = O=C1N[C@H]2[C@H](CS[C@H]2CCCCC(=O)*)N1

B1: Comparative antibody 3 (Comp-3) scFv, SR_92R (Somovilla-Crespo et al. 2018), His-tagged (scFv)
scFv: EVKLEESGGGLVQPGGSMKLSCVASGFTFNKFWMNWVRQSPEKGLEWVAEIRLKSNNYATHYAESVKGRFTISRDDSKSSVYLQMNNLRAEDTGIYYCASDGWFAYWGQGTLVTVSAGGGGSGGGGSGGGGSGGGGSDVVMTQTPLSLPVSLGDQASISCRSSQSLVHSNGNTYLNWCLQRPGQSPKSLIYKVSNRFSGVPDRFSGSGSGTDFTLKISRVEAEDLGVYFCSQSTHFPRTFGGGTKLEIKRHHHHHH
B2: CCR9_HUM2 scFv (humanized anti-CCR9 scFv, SEQ ID NO: 17 with C-terminal 6xHis tag) (scFv)
scFv: QVQLVQSGAEVKKPGASVKVSCTASGYSFTDYIIYWVKQAHGQSLEWMGYIDPNNYNTRYSQKFQGKVTITVDKSSTSAYMELNSLTSDDTAVYYCARDVYWGQGTTVTVSSGGGGSGGGGSGGGGSGGGGSDVVMTQTPLSLSVTPGQPASISCRSSQSLVHSNGKTYLQWYLQKPGQSPKLLIYKVSNRFSGVPDRFSGSGSGTDFTLKISRVEAEDVGVYFCAQSTHVWTFGGGTKVEIKRAHHHHHH
B3: Comparative antibody 1 (Comp-1) scFv, SEQ ID NO: 10 from WO2023/037125 A1, His-tagged (scFv)
scFv: QVQLKESGPGLVQPSQTLSLTCTVSGFSVASYDMHWVRLPPGKGLEWMGIIWANGNTHYNSGLKSRLSISRDTSKSQVFLKMNSLQTEDTAIYFCTRGGFAYWGQGTLVTVSSGGGGSGGGGSGGGGSGGGGSDVVMTQTPVSLSVSLGGQVSISCRSSQSLVHNNGNTYLSWYLQKPGQSPQLLIYKVSNRFSGVSDRFSGSGSGTDFTLKISRVEPDDLGVYYCGQGTQYPTFGGGTKLELKHHHHHH
B4: Comparative antibody 2 (Comp-2) scFv, 243LO326 (VH SEQ ID NO: 51 and VL SEQ ID NO: 52 of WO 2022/195028 A2), His-tagged (scFv)
scFv: QVQLVQSGAEVKKPGASVKVSCKASGYTFTSYWMHWVRQAPGQGLEWIGVIYPGNSDTRYNQKFKGRVTITRDTSASTAYMELSSLRSEDTAVYYCTRDYYSNYVYYYAMDYWGQGTTVTVSSGGGGSGGGGSGGGGSGGGGSDIVMTQTPLSLPVTPGEPASISCRSSQSLVHPNRNTYLHWYLQKPGQSPQLLIYKVSNRFSGVPDRFSGSGSGTDFTLKISRVEAEDVGVYYCSQSTHVPWTFGQGTKLEIKHHHHHH

Assays:
[1] = target: T1, naked peptide 1a MTPTDFTSPIPNMADDYGSESTSS (human); experiment: ELISA naked 24-mer; repII
T1 construct: also called region 1-24
T1 peptide: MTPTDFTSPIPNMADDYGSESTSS

[2] = target: T2, naked peptide 1b MEDYVNFNFTDFYCEKNNVRQFAS (human); experiment: ELISA naked 24-mer; repII
T2 construct: also called region amino acids 25 to 48
T2 peptide: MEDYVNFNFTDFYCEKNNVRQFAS

[3] = target: T3, biotin-peptide MADDYGSEST (human); experiment: ELISA biotin-peptide; scFv 10 ug/mL; repII
T3 peptide: Biotin-MADDYGSEST
Description: (§1) The peptides were synthesized naked or with a N-terminal Biotin modification with a purity of >98%. All four scFvs were verified by ELISA that can be detected with anti-His antibodies. ELISA was performed for scFv-peptide binding validation. Briefly, naked peptides were coated (50 μg/mL) in 0.58M carbonate-bicarbonate buffer pH9.5, 100 μL/well, 4° C. O/N. Then after blocking (3% BSA-PBS, 300 μL/well 37° C. 1.5 h) and washing (PBS+Tween-20 0.05% v/v (0.05% PBST), wells were incubated with each purified scFv antibody at concentration of 1 μg/mL in PBS at 37° C. 1 h. After washing (0.05% PBST), wells were incubated with secondary antibodies (goat anti-His IgG-HRP) in PBS, 37° C., 30 min. After washing, and incubation with TMB substrate, reactions were stopped with 2M HCl and reading was quantified at OD450.
(§2) ELISA with biotin-conjugated peptides (5 μg/mL) was performed very similar to described above with minor modifications.

[4] = target: T4, biotin-peptide IPNMADDYGS (human); experiment: ELISA biotin-peptide; scFv 10 ug/mL; repII
T4 peptide: Biotin-IPNMADDYGS
Description: as §1, §2

[5] = target: T5, biotin-peptide TSSMEDYVNF (human); experiment: ELISA biotin-peptide; scFv 10 ug/mL; repII
T5 peptide: Biotin-TSSMEDYVNF
Description: as §1, §2

[6] = target: T6, biotin-peptide SESTSSMEDY (human); experiment: ELISA biotin-peptide; scFv 10 ug/mL; repII
T6 peptide: Biotin-SESTSSMEDY
Description: as §1, §2

[7] = target: T7, biotin-peptide TDFTSPIPNM (human); experiment: ELISA biotin-peptide; scFv 10 ug/mL; repII
T7 peptide: Biotin-TDFTSPIPNM
Description: as §1, §2

[8] = target: T8, biotin-peptide MTPTDFTSPI (human, also: prints MTPTDFTSP, without I10); experiment: ELISA biotin-peptide; scFv 10 ug/mL; repII
T8 peptide: Biotin-MTPTDFTSPI
Description: as §1, §2

[9] = target: T9, biotin-peptide YVNFNFTDFY (human); experiment: ELISA biotin-peptide; scFv 10 ug/mL; repII
T9 peptide: Biotin-YVNFNFTDFY
Description: as §1, §2

biotin-peptide KNNVRQFAS = target: T10, biotin-peptide KNNVRQFAS (human); experiment: ELISA biotin-peptide; scFv 10 ug/mL; repII
T10 peptide: Biotin-KNNVRQFAS
Description: as §1, §2

[10] = target: T11, biotin-peptide YCEKNNVRQF (human); experiment: ELISA biotin-peptide; scFv 10 ug/mL; repII
T11 peptide: Biotin-YCEKNNVRQF
Description: as §1, §2

[11] = target: T12, biotin-peptide TSPIPNMADD (human); experiment: ELISA biotin-peptide; scFv 10 ug/mL; repII
T12 peptide: Biotin-TSPIPNMADD
Description: as §1, §2

[12] = target: T13, biotin-peptide FNFTDFYCEK (human); experiment: ELISA biotin-peptide; scFv 10 ug/mL; repII
T13 peptide: Biotin-FNFTDFYCEK
Description: as §1, §2

[13] = target: T14, biotin-peptide DYGSESTSSM (human); experiment: ELISA biotin-peptide; scFv 10 ug/mL; repII
T14 peptide: Biotin-DYGSESTSSM
Description: as §1, §2

[14] = target: T15, biotin-peptide SSMEDYVNFN (human); experiment: ELISA biotin-peptide; scFv 10 ug/mL; repII
T15 peptide: Biotin-SSMEDYVNFN
Description: as §1, §2

[15] = target: T16, biotin-peptide TDFYCEKNNV (human); experiment: ELISA biotin-peptide; scFv 10 ug/mL; repII
T16 peptide: Biotin-TDFYCEKNNV
Description: as §1, §2

[16] = target: T17, biotin-peptide MEDYVNFNFT (human); experiment: ELISA biotin-peptide; scFv 2.5 ug/mL; repII
T17 peptide: Biotin-MEDYVNFNFT
Description: as §1, §2
(§3) A full curve ELISA was performed for each positive scFv/biotin-peptide pair in order to confirm previous results. Tables 15-17 show ELISA results of the dose-dependent full curve for each positive peptide with scFv “CCR9_HUM”, “Comp-2” and “Comp-3”, respectively.

[17] = target: T18, biotin-peptide SMEDYVNFNF (human); experiment: ELISA biotin-peptide; scFv 2.5 ug/mL; repII
T18 peptide: Biotin-SMEDYVNFNF
Description: as §1, §2, §3

[18] = target: T5, biotin-peptide TSSMEDYVNF; experiment: ELISA biotin-peptide; scFv 2.5 ug/mL; repII
Description: as §1, §2, §3

[19] = target: T15, biotin-peptide SSMEDYVNFN; experiment: ELISA biotin-peptide; scFv 2.5 ug/mL; repII
Description: as §1, §2, §3

[20] = target: T17, biotin-peptide MEDYVNFNFT; experiment: ELISA biotin-peptide; scFv 5 ug/mL; repII
Description: as §1, §2, §3

[21] = target: T18, biotin-peptide SMEDYVNFNF; experiment: ELISA biotin-peptide; scFv 5 ug/mL; repII
Description: as §1, §2, §3

[22] = target: T5, biotin-peptide TSSMEDYVNF; experiment: ELISA biotin-peptide; scFv 5 ug/mL; repII
Description: as §1, §2, §3

[23] = target: T15, biotin-peptide SSMEDYVNFN; experiment: ELISA biotin-peptide; scFv 5 ug/mL; repII
Description: as §1, §2, §3

[24] = target: T17, biotin-peptide MEDYVNFNFT; experiment: ELISA biotin-peptide; scFv 0.625 ug/mL; repII
Description: as §1, §2, §3

[25] = target: T18, biotin-peptide SMEDYVNFNF; experiment: ELISA biotin-peptide; scFv 0.625 ug/mL; repII
Description: as §1, §2, §3

[26] = target: T5, biotin-peptide TSSMEDYVNF; experiment: ELISA biotin-peptide; scFv 0.625 ug/mL; repII
Description: as §1, §2, §3

[27] = target: T15, biotin-peptide SSMEDYVNFN; experiment: ELISA biotin-peptide; scFv 0.625 ug/mL; repII
Description: as §1, §2, §3

Row | Binder | OD450 [1] [OD] | OD450 [2] [OD] | OD450 [3] [OD] | OD450 [4] [OD] | OD450 [5] [OD] | OD450 [6] [OD] | OD450 [7] [OD] | OD450 [8] [OD] | OD450 [9] [OD] | OD450 (biotin-peptide KNNVRQFAS) [OD] | OD450 [10] [OD] | OD450 [11] [OD] | OD450 [12] [OD] | OD450 [13] [OD] | OD450 [14] [OD] | OD450 [15] [OD] | further results
1 | B1 | 1.35 | 0.09 | 0.13 | 1.47 | 0.12 | 0.12 | 0.11 | 0.13 | 0.13 | 0.08 | 0.09 | 1.69 | 0.07 | 0.1 | 0.12 | 0.09 | –
2 | B2 | 0.08 | 2.24 | 0.16 | 0.1 | 1.92 | 0.09 | 0.09 | 0.09 | 0.21 | 0.09 | 0.06 | 0.06 | 0.06 | 0.07 | 2.3 | 0.06 | OD450 [16]: 1.64 OD; OD450 [17]: 1.77 OD; OD450 [18]: 1.4 OD; OD450 [19]: 1.78 OD; OD450 [20]: 1.72 OD; OD450 [21]: 1.79 OD; OD450 [22]: 1.38 OD; OD450 [23]: 1.82 OD; OD450 [24]: 1.46 OD; OD450 [25]: 1.67 OD; OD450 [26]: 0.67 OD; OD450 [27]: 1.74 OD
3 | B3 | 0.1 | 0.06 | 0.07 | 0.14 | 0.08 | 0.1 | 0.08 | 0.07 | 0.09 | 0.06 | 0.06 | 0.15 | 0.05 | 0.11 | 0.13 | 0.05 | –
4 | B4 | 0.08 | 2.01 | 0.09 | 0.09 | 0.06 | 0.05 | 0.12 | 0.1 | 2.06 | 0.07 | 0.1 | 0.05 | 1.35 | 0.09 | 0.1 | 0.05 | –
